US20150246947A1 (BAXALTA, published 2015)
Like-named read-outs stand apart in the source and are kept apart here. Each block holds one binder with its values, some of them ahead of it.

Experiments:
human Protein S [1] = target: T1, human Protein S (UniProt P07225 42-676); assay: LANCE competition
T1 chain: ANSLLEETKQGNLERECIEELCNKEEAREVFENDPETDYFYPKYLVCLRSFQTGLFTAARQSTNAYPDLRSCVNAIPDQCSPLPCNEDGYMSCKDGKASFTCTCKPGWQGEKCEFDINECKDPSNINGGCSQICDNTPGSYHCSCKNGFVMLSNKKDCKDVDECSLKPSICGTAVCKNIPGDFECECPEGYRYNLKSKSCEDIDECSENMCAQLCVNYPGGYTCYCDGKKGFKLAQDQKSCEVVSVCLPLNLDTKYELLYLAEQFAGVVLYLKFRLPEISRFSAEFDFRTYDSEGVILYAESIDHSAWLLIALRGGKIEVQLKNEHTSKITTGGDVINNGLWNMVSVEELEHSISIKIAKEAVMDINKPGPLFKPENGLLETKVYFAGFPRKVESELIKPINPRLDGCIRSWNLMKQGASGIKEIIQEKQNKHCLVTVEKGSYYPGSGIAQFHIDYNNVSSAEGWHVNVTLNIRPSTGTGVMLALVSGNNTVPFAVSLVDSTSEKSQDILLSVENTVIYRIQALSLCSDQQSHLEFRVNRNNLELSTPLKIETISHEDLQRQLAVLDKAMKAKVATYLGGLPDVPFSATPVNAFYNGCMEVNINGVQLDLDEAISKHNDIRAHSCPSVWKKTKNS
Procedure, shortened: (§1)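 In this LANCE homogeneous time-resolved FRET competition assay, europium-labelled Protein S, ULight-labelled streptavidin and a biotinylated tracer peptide were combined with unlabelled test peptide titrated in three-fold steps. The 50 µl reactions held final concentrations of 10 nM Protein S, 100 nM streptavidin and 300 nM tracer, or 2 nM Protein S and 60 nM tracer on a Tecan F500. After 1 hour at room temperature, signals were read at Ex 340 nm and Em 665 nm. IC50 was determined by non-linear regression of the emission signals.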

human Protein S [2] = target: T2, human Protein S (human, UniProt P07225 42-676); assay: Biacore (SPR), Protein S immobilized
T2 construct: Called 'full length Protein S' / 'human full-length Protein S'; It was coated on plates (ELISA), Eu-labeled (LANCE) or immobilized on a chip (Biacore); also called PS; full length Protein S
T2 sequence: T1 chain
Procedure, shortened: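 Kd was derived from kon and koff, which came from fitting surface plasmon resonance sensorgrams to a Langmuir binding model. Measurements used a Biacore 3000 or Biacore T200 with 1000 RU of human full-length Protein S on a […] chip, and peptides were injected at various concentrations in HBS-buffer with 3 mM CaCl₂ and 1% DMSO.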

human Protein S [3] = target: T1, human Protein S; assay: LANCE competition
Procedure, shortened: as §1

human Protein S [4] = target: T2, human Protein S; assay: cell-based or functional assay
human Protein S [5] = target: T2, human Protein S; assay: competition ELISA; Protein S coated; competitor biotinylated tracer JBS0684
Protocol: The competition (IC50) ELISA was performed using biotinylated tracer peptide JBS0684 to compete for Protein S-binding with candidate peptides. Peptides that compete with the tracer bind the same region of Protein S as the tracer (and each other). Ninety-six well PolySorp plates (Nunc) were coated with 3 μg/mL Protein S in coating buffer (15 mM Na₂CO₃, 35 mM NaHCO₃, pH 9.6) over night. […] Plates were then washed three times with HNaT. JBS0684 was applied at a concentration corresponding to the EC90 value determined in the binding ELISA. A competitor stock solution of peptide (10 mM) was diluted 1/33.3 in HNaT without HSA, and a serial 1/3 dilution was prepared with HNaT with 3% DMSO. The dilution was further diluted with the biotinylated tracer peptide in a ratio of 1:6 (20 μl competitor dilution and 100 μl tracer peptide). The mixture of competitor and tracer peptide was applied to the Protein S-coated microtiter plate and incubated for 1.5 hours. The plates were washed three times with HNaT. Peptide-Protein S binding was detected by applying HRP-conjugated streptavidin to the microtiter plate, incubating the mixture for one hour, washing the plate three times with HNaT, applying TMB (3,3′5,5′-Tetramethylbenzidin), and detecting the subsequent chromogenic conversion of TMB by HRP. IC50 measurements of peptides are provided herein (see, e.g., Table 3).

B2: JBS3263 (peptide)
peptide: Ac-EYIVTAGWYDYNKDIYYEFK-NH2
Kd (human Protein S [2]): 0.4 nM
koff (human Protein S [2]): 0.000264 s⁻¹
kon (human Protein S [2]): 629000 M⁻¹ s⁻¹
IC50 (human Protein S [3]): 1.2 nM

B5: JBS3306 (peptide)
peptide: Ac-HWYVSAGWYDYNEDKYYEFE-NH2
Kd (human Protein S [2]): 0.4 nM
koff (human Protein S [2]): 0.000402 s⁻¹
kon (human Protein S [2]): 1e+06 M⁻¹ s⁻¹
IC50 (human Protein S [3]): 0.8 nM

B7: JBS3321 (peptide)
peptide: Ac-EYYVSAGWYDYNTDTYYEFEC-NH2
modifications: not fully specified (residue 21)
notes: Tetramer of JBS3319 monomers with a four arm 10 kD PEG moiety
Kd (human Protein S [2]): 0.02 nM
koff (human Protein S [2]): 3.88e-05 s⁻¹
kon (human Protein S [2]): 1.58e+06 M⁻¹ s⁻¹
IC50 (human Protein S [3]): 0.7 nM

B13: JBS2570 (peptide)
chain: Ac-LGHVSAGWYDYNFDHYREFT-NH2
IC50 (human Protein S [1]): 18.8 nM

B15: JBS2546 (peptide)
peptide: Ac-TGHVSAGWYDYNFDDYREFT-NH2
IC50 (human Protein S [1]): 31 nM
CAT EC50 (human Protein S [4]): 30 nM
IC50 (human Protein S [5]): 6.8 nM

B20: JBS2592 (peptide)
peptide: Ac-TGKVSAGWYDYNFDHYREFT-NH2
IC50 (human Protein S [1]): 20 nM
CAT EC50 (human Protein S [4]): 68 nM
IC50 (human Protein S [5]): 5.6 nM

B21: JBS2528 (peptide)
peptide: Ac-TGHVSAGWYDYNFDAYREFT-NH2
IC50 (human Protein S [1]): 18.8 nM
CAT EC50 (human Protein S [4]): 23 nM
IC50 (human Protein S [5]): 5.2 nM

B25: JBS2649 (peptide)
chain: Ac-TSHVSAGWYDYNFDHYREFT-NH2
IC50 (human Protein S [1]): 31.8 nM

B27: JBS3283 (peptide)
peptide: Ac-AIYVTAGWYDYNNDTYYEFT-NH2
Kd (human Protein S [2]): 0.4 nM
koff (human Protein S [2]): 0.000322 s⁻¹
kon (human Protein S [2]): 735000 M⁻¹ s⁻¹
IC50 (human Protein S [3]): 0.9 nM

B28: JBS2512 (peptide)
peptide: Ac-TGHVSAGWYDYNFDHYREFT-NH2
IC50 (human Protein S [1]): 21.5 nM
CAT EC50 (human Protein S [4]): 24 nM
IC50 (human Protein S [5]): 3.9 nM

B30: JBS2526 (peptide)
peptide: Ac-TGHVSAGWYDYNADHYREFT-NH2
CAT EC50 (human Protein S [4]): 19 nM
IC50 (human Protein S [5]): 3.6 nM

B31: JBS2591 (peptide)
peptide: Ac-TKHVSAGWYDYNFDHYREFT-NH2
IC50 (human Protein S [5]): 4.2 nM

B32: JBS2584 (peptide)
peptide: Ac-TGHVSAGWYDYNFDLYREFT-NH2
CAT EC50 (human Protein S [4]): 9 nM
IC50 (human Protein S [5]): 2.7 nM

B33: JBS2629 (peptide)
peptide: Ac-TPHVSAGWYDYNFDHYREFT-NH2
CAT EC50 (human Protein S [4]): 25 nM
IC50 (human Protein S [5]): 3.1 nM

B34: JBS2604 (peptide)
peptide: Ac-TGHVSAGWYDYNFDKYREFT-NH2
CAT EC50 (human Protein S [4]): 19 nM
IC50 (human Protein S [5]): 4.1 nM

Other lines, results leading:

IC50 (human Protein S [1]): 9.4 nM
B1: JBS2645 (peptide)
chain: Ac-TGHVSAGWYDYNFDHYRPFT-NH2

IC50 (human Protein S [1]): 11.6 nM
B3: JBS2676 (peptide)
chain: Ac-GGHVSAGWYDYNKDHYREFT-NH2

IC50 (human Protein S [1]): 11.4 nM
B4: JBS2590 (peptide)
chain: Ac-KGHVSAGWYDYNFDHYREFT-NH2

IC50 (human Protein S [1]): 3.6 nM
B6: JBS2750 (peptide)
chain: Ac-TGLVSAGWYDYNFDEYREFT-NH2

IC50 (human Protein S [1]): 15.1 nM
B8: JBS2623 (peptide)
chain: Ac-TGHVSAGWYDYNFDFYREFT-NH2

IC50 (human Protein S [1]): 7.8 nM
CAT EC50 (human Protein S [4]): 16 nM
IC50 (human Protein S [5]): 2.8 nM
B9: JBS2661 (peptide)
peptide: Ac-TGHVSAGWYDYNFDSYREFT-NH2

IC50 (human Protein S [1]): 2.2 nM
B10: JBS2788 (peptide)
chain: Ac-TGLVSAGWYDYNFDIYREFT-NH2

IC50 (human Protein S [1]): 18.6 nM
B11: JBS2648 (peptide)
chain: Ac-SGHVSAGWYDYNFDHYREFT-NH2

IC50 (human Protein S [1]): 16.6 nM
CAT EC50 (human Protein S [4]): 24 nM
IC50 (human Protein S [5]): 5.5 nM
B12: JBS2552 (peptide)
peptide: Ac-GGHVSAGWYDYNFDHYREFT-NH2

IC50 (human Protein S [1]): 9.9 nM
CAT EC50 (human Protein S [4]): 21 nM
IC50 (human Protein S [5]): 3.3 nM
B14: JBS2516 (peptide)
peptide: Ac-TAHVSAGWYDYNFDHYREFT-NH2

IC50 (human Protein S [1]): 3.4 nM
B16: JBS2790 (peptide)
chain: Ac-TGLVSAGWYDYNFDHYIEFT-NH2

IC50 (human Protein S [1]): 7.4 nM
CAT EC50 (human Protein S [4]): 15 nM
IC50 (human Protein S [5]): 2.3 nM
B17: JBS2582 (peptide)
peptide: Ac-TGHVSAGWYDYNLDHYREFT-NH2

IC50 (human Protein S [1]): 17 nM
B18: JBS2612 (peptide)
chain: Ac-TGFVSAGWYDYNFDHYREFT-NH2

IC50 (human Protein S [1]): 3.6 nM
B19: JBS2924 (peptide)
chain: Ac-TGLVSAGWYDYNFDHYWEFT-NH2

IC50 (human Protein S [1]): 10.9 nM
CAT EC50 (human Protein S [4]): 30 nM
IC50 (human Protein S [5]): 3.4 nM
B22: JBS2602 (peptide)
peptide: Ac-TGHVSAGWYDYNKDHYREFT-NH2

IC50 (human Protein S [1]): 4 nM
B23: JBS2887 (peptide)
chain: Ac-TGLVSAGWYDYNFDHYTEFT-NH2

IC50 (human Protein S [1]): 5.9 nM
B24: JBS2905 (peptide)
chain: Ac-TGLVSAGWYDYNFDHYVEFT-NH2

IC50 (human Protein S [1]): 6.6 nM
CAT EC50 (human Protein S [4]): 29 nM
IC50 (human Protein S [5]): 1.6 nM
B26: JBS2625 (peptide)
peptide: Ac-TGHVSAGWYDYNFDHYFEFT-NH2

IC50 (human Protein S [1]): 8.4 nM
B29: JBS2845 (peptide)
chain: Ac-TGLVSAGWYDNNFDHYREFT-NH2

IC50 (human Protein S [1]): 11 nM
CAT EC50 (human Protein S [4]): 19 nM
IC50 (human Protein S [5]): 2.6 nM
B35: JBS2586 (peptide)
peptide: Ac-TGHVSAGWYDYNFDHYLEFT-NH2
